This note sets out measurements from patent US7217700.

One assay concerns the target T1, CCR6 (human) (UniProt P51684).
T1 sequence (looked up): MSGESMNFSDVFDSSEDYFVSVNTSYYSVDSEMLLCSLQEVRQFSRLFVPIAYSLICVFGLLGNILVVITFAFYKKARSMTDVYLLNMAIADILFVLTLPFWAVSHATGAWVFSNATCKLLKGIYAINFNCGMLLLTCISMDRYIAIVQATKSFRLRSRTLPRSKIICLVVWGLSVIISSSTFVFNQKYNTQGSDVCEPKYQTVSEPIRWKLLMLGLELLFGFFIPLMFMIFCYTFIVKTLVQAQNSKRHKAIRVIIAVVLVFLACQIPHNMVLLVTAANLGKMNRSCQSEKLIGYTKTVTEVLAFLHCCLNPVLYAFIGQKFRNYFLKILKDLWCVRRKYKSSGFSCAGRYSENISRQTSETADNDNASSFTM
The experiment in a line: cell-based or functional assay.

The next assay addresses CCR7 (human) (UniProt P32248). Description: cell-based or functional assay.
Sequence of UniProt P32248 (P32248 25-378): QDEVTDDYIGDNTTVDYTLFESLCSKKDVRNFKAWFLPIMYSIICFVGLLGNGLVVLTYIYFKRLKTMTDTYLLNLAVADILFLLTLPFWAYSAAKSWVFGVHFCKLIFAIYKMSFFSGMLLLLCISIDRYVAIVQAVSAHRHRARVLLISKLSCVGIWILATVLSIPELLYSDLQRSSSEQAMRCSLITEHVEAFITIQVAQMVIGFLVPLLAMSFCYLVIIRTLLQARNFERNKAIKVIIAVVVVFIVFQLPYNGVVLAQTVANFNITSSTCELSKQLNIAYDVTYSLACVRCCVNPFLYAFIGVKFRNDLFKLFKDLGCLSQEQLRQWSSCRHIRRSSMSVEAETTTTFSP

In the assay with CCR6 (human), “Recombinant human MIP-3α (from UniProt P78556 27-96) (ligand)” returned a Ca2+ flux (Indo-1 fluorimetry) in immature CD34+-derived DC; concentration giving the maximal flux of 30 ng/mL, a chemotaxis (Boyden microchamber) of DC precursors (CD1a-CD86-); concentration at which the response is detected of 1 to 10 ng/mL and a chemotaxis (Boyden microchamber) of immature DC (CD1a+CD86-); concentration needed to attract the cells greater than 300 ng/mL.
In the assay with CCR7 (human), “Recombinant human MIP-3β (from UniProt Q99731 22-98) (ligand)” registered a Ca2+ flux (Indo-1 fluorimetry) in mature CD34+-derived DC; concentration giving the maximal flux of 30 ng/mL, a chemotaxis (Boyden microchamber) of mature DC (CD1a+CD86+); concentration needed to recruit the cells of 300 ng/mL and a chemotaxis of CD40L-activated CD34+-derived DC; concentration required at 48 h of 100 to 300 ng/mL.
